{
  "source": "patent US20240174744A1",
  "about": "(SCIRHOM, published 2024)",
  "key": {"[1]": {"molecular_target": "T1, dog iRhom2 full length wild type, C-terminally tagged with 3 consecutive copies of the T7 epitope (dog, UniProt Q00M95 1-827)", "T1 construct": "whole, on cells; also called Dog-iR2-FL-WT-T7", "T1 sequence": "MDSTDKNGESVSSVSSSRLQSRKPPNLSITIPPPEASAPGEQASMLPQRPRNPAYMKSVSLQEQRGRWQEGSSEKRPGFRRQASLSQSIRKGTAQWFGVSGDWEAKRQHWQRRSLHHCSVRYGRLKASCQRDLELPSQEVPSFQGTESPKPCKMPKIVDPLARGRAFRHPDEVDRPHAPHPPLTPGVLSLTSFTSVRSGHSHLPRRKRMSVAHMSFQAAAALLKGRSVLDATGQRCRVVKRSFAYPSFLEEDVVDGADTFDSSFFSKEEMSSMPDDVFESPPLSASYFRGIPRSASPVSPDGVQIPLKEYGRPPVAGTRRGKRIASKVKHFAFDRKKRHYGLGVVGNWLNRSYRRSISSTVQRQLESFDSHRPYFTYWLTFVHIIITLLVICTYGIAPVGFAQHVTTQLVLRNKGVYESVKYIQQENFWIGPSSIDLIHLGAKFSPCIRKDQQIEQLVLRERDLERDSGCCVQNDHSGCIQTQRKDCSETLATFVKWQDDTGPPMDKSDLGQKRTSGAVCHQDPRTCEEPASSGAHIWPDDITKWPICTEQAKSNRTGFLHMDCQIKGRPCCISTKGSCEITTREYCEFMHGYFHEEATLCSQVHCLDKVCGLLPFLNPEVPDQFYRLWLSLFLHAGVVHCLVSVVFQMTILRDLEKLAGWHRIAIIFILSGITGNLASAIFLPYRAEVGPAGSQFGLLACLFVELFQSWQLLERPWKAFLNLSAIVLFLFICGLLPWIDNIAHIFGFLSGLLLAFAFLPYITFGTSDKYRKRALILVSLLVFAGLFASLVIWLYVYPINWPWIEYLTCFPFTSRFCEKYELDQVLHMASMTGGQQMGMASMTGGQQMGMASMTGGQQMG", "test": "FACS, MEF-DKO-dog-iR2-FL-WT-T7 cells, 3 µg/ml", "procedure": "In brief, immortalized MEF-DKO-EV control cells, MEF-DKO-rhesus-iR2-FL-WT-T7 cells, MEF-DKO-cyno-iR2-FL-WT-T7 cells, MEF-DKO-dog-iR2-FL-WT-T7 cells and MEF-DKO-rabbit-iR2-FL-WT-T7 cells, as well as their respective iRhom1 counterparts, were harvested with 10 mM EDTA in PBS, washed and resuspended in FACS buffer (PBS, 3% FBS, 0.05% sodium azide), and seeded in Nunc U-bottom 96-well plates (Thermo Fisher Scientific, USA) at approximately 3×10⁵ cells per well. To pellet cells and remove supernatants, the plates were centrifuged at 1,500 rpm and 4° C. for 3 minutes. For primary staining, cells were resuspended in 100 μl per well of either FACS buffer alone (controls), mouse monoclonal anti-T7 IgG (Merck Millipore, USA) at 3 μg/ml FACS buffer or the antibodies of the present disclosure also at 3 μg/ml FACS buffer and incubated on ice for 1 hour. Afterwards, plates were centrifuged at 1,500 rpm and 4° C. for 3 minutes and washed twice with 200 μl per well of FACS buffer. For secondary staining, cells were spun down and resuspended in 100 μl per well of PE-conjugated goat anti-mouse IgG F(ab′)2 detection fragment (Dianova, Germany) diluted 1:100 in FACS buffer. Protected from light, the cell suspensions were incubated on ice for 1 hour. […] Finally, cells were resuspended in 150 μl per well of FACS buffer and analyzed using a BD Accuri™ C6 Plus flow cytometer (Becton Dickinson, Germany)."}, "[2]": {"molecular_target": "T2, hiR2-FL-P533-T7 (human iRhom2 full length with deletion of P533, 3 x T7 tag) (human, UniProt Q6PJF5 1-856)", "T2 construct": "The change is a deletion of one residue, not a substitution", "T2 sequence": "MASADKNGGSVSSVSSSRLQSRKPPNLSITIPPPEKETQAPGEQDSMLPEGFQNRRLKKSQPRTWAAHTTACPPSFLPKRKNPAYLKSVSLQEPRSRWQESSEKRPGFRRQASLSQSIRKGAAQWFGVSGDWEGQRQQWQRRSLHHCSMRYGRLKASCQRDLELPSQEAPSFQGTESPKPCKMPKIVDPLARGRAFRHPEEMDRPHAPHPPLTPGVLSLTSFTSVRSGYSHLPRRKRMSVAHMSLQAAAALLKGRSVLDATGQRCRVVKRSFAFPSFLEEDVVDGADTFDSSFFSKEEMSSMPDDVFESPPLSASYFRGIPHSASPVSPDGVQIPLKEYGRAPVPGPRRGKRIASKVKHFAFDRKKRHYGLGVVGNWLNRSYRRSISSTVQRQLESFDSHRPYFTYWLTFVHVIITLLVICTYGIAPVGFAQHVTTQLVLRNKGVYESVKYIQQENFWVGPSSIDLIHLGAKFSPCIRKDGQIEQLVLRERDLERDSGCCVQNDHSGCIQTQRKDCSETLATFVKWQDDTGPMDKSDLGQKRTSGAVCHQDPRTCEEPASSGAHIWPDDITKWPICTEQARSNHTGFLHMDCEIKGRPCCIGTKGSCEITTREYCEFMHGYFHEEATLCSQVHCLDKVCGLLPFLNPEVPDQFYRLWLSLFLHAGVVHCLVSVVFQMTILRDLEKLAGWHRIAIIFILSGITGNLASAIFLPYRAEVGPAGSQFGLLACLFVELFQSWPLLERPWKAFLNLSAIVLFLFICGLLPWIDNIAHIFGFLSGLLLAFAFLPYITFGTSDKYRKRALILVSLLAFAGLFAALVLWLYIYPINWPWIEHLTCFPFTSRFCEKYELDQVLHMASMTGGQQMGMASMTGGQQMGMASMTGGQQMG", "test": "FACS on MEF-DKO-hiR2-FL-P533- -T7 cells"}},
  "data": [
    {"binder": "antibody 5 (antibody, V domains shown, Mouse IgG, kappa light chain; also called clone #5; purified antibody 5) VH: QVTLKESGPGILQPSQTLSLTCSFSGFSLSTFGMGVGWIRQPSGKGLEWLAHIWWDDEKYYNSALKSRLTISKATSKNQAFLKIANVDTADTATYYCARISNYGSNYWYFNVWGTGTTVTVSS VL: QVVLTQSPALMSASPGEKVTMTCSAGSSVSCMYWYQQKPGSSPRVLIYDTSNLASGVPARFTGSGSGTSYSLTISRMEAEDAASYYCQQWNSYPLTFGAGTKLELK", "values": [
      {"measurement": "binding result", "setting": "[1]", "value": "binds"}
    ]},
    {"binder": "antibody 3 (antibody, V domains shown, Mouse IgG, kappa light chain; also called clone #3; purified antibody 3) VH: QVTLKESGPGILQPSQTLSLTCSFSGFSLTTFAMGIGWVRQPSGKGLEWLAHIWWDGEKYNNPVLKSRLTISKDTSKNQVFLRIANVDTPDTATYYCARISSIYYIIDNWGQGTSVTVSS VL: DIVLTQSPATLSVTPGHSVSLSCRASQSISNNLHWYQKKSHESPRLLIKYVSQSISGIPSRFSGSGSGTDFTLSINSVETEDFGMYFCQQSYNWPLTFGAGTKLELK", "values": [
      {"measurement": "binding result", "setting": "[2]", "value": "no binding (tested: 3 µg/ml)"},
      {"measurement": "binding result", "setting": "[1]", "value": "binds"}
    ]}
  ]
}
